This is an account of results in patent publication US20250382359A1.

The assay deals with GFRAL (co-expressed with RET on HEK293 stable cells) (UniProt Q6UXV0). In words: cell-based or functional assay.
GFRAL (co-expressed with RET on HEK293 stable cells), sequence (Q6UXV0 19-394 limits assumed): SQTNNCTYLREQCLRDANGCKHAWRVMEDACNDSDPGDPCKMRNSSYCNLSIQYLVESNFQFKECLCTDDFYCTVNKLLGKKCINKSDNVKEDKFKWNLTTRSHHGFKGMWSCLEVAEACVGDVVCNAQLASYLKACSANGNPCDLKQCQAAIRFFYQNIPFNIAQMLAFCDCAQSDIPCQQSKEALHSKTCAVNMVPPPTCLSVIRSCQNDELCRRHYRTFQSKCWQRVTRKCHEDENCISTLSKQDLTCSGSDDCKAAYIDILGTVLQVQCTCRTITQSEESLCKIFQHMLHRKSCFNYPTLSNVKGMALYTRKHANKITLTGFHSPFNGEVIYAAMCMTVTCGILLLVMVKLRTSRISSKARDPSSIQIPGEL

Substance “GDF15 (ligand used in the GFRAL/RET cell assays) (from UniProt Q99988 197-308)” came in with a Luciferase assay, GFRAL/RET/SRE reporter HEK293 cells; EC80 of GDF15 of 2 nM and a pERK assay, GFRAL/RET HEK293 cells; EC80 of GDF15 of 850 pM.
